Article PMC2812517 (The Journal of Cell Biology, 2010)

Target: GST-LC3B (UniProt Q9GZQ8 1-120)
Test: pull-down

B1: MBP-FYCO1(863–1,478) (domain or fragment)
chain: AQQREEELRALQEELSQAKCSSEEAQLEHAELQEQLHRANTDTAELGIQVCALTVEKERVEEALACAVQELQDAKEAASREREGLERQVAGLQQEKESLQEKLKAAKAAAGSLPGLQAQLAQAEQRAQSLQEAAHQELNTLKFQLSAEIMDYQSRLKNAGEECKSLRGQLEEQGRQLQAAEEAVEKLKATQADMGEKLSCTSNHLAECQAAMLRKDKEGAALREDLERTQKELEKATTKIQEYYNKLCQEVTNRERNDQKMLADLDDLNRTKKYLEERLIELLRDKDALWQKSDALEFQQKLSAEERWLGDTEANHCLDCKREFSWMVRRHHCRICGRIFCYYCCNNYVLSKHGGKKERCCRACFQKLSEGPGSPDSSGSGTSQGEPSPALSPASPGPQATGGQGANTDYRPPDDAVFDIITDEELCQIQESGSSLPETPTETDSLDPNAAEQDTTSTSLTPEDTEDMPVGQDSEICLLKSGELMIKVPLTVDEIASFGEGSRELFVRSSTYSLIPITVAEAGLTISWVFSSDPKSISFSVVFQEAEDTPLDQCKVLIPTTRCNSHKENIQGQLKVRTPGIYMLIFDNTFSRFVSKKVFYHLTVDRPVIYDGSDFL
binding result: binds
